{"source": "patent US20160089393A1", "about": "“COMPOSITION AND METHODS FOR COMBATING ANTIBACTERIAL RESISTANT BACTERIA” (BLUEBERRY THERAPEUTICS LIMITED, priority 2013, published 2016)", "molecules": {"B1": {"name": "E1: MecA (PBP2A) binding peptide aptamer, Sequence ID No. 4; different scaffold to MecA3136 and MecA3140 (protein)", "chain": "ASAATGVRAVPGNENSLEIEELARFAVDEHNKKENALLEFVRVVKAKEQHWKAKLGHDTMYYLTLEAKDGGKKKLYEAKVWVKLIPTKDFHLNFKELQEFKPVGDAAAAHHHHHH", "modifications": "Peptide sequence E1", "notes": "different scaffold to MecA3136 and MecA3140"}}, "key": {"[1]": {"test_system": "EMRSA-15", "test": "Oxacillin sensitization: growth of EMRSA-15 with peptide, oxacillin and fixed PHMB", "type": "cell-based, methicillin-resistant Staphylococcus aureus (MRSA)", "design": "key: 1 is growth; 0 is no growth", "settings": "MecA3136 0 uM, PHMB 0.25 μg/ml", "description": "(§1) Synergy of PHMB and peptides (MecA3136, MecA3140) were tested by a standard checkerboard method of two-fold dilutions. PHMB and peptide were mixed at appropriate concentrations to a final volume of 30 μl in each well of a 96 well plate, and the mixtures were incubated at 20-22° C. for 30 mins before the addition of culture and oxacillin to a final volume of 150 μl. Plates were incubated and scored as above. FIC indices were calculated for wells without growth and containing the lowest combination of PHMB and peptide as follows: (A/MICA)+(B/MICB)=FICA+FICB=FIC index, where A is concentration of PHMB in combination, MICA is MIC of PHMB alone, B is concentration of peptide in combination, MICB is MIC of peptide alone. A control plate without oxacillin, and control wells of culture with increasing oxcaillin but without PHMB and peptide were included. […]"}, "[2]": {"test_system": "EMRSA-15", "test": "Oxacillin sensitization: growth of EMRSA-15 with peptide, oxacillin and fixed PHMB", "type": "cell-based, methicillin-resistant Staphylococcus aureus (MRSA)", "design": "key: 1 indicates growth; 0 indicates no growth", "settings": "PHMB 1 ug/ml", "description": "as §1"}, "[3]": {"test_system": "EMRSA-15", "test": "MIC by broth microdilution (antibacterial susceptibility test of EMRSA-15)", "type": "cell-based, methicillin-resistant Staphylococcus aureus (MRSA)", "settings": "Staphylococcus aureus, read-out: MIC of EMRSA-15 to oxacillin", "description": "Antibacterial susceptibility test of EMRSA-15 was carried out according to NCCLS guidelines for broth micro broth dilution with modifications. EMRSA-15 was streaked from a −70° C. glycerol stock to Columbia base agar (Oxoid) supplemented with 5% horse blood (Oxoid) and 6 μg/ml oxacillin (Sigma), and incubated for 18-20 h at 33° C. Two to four bacterial colonies were inoculated into 3 ml Mueller Hinton broth (MHB, Oxoid) supplemented with 6 μg/ml oxacillin (Sigma) and incubated for 18-20 h at 33° C. with shaking at 180 rpm. Cultures were adjusted to OD625 0.08-0.1 (equivalent to 0.5 Mcfarland or 1-2×10^8 cfu/ml) with MHB and further diluted 1/50 to achieve a final concentration of 5×10^5 cfu per well. Susceptibility to either oxacillin, PHMB or peptides was tested by adding oxacillin (0-1024 μg/ml in MHB), PHMB (0-512 μg/ml in 1×PBS) or peptide (0-512 μg/ml in 1×PBS) to 75 μl of culture in a final volume of 150 μl per well. Plates were incubated at 33° C. for 24 h and growth was scored visually."}, "[4]": {"test_system": "EMRSA-15", "test": "Checkerboard synergy of PHMB and MecA peptides with oxacillin (FIC index)", "type": "cell-based, methicillin-resistant Staphylococcus aureus (MRSA)", "settings": "Staphylococcus aureus", "description": "Synergy of PHMB and peptides (MecA3136, MecA3140) were tested by a standard checkerboard method of two-fold dilutions. PHMB and peptide were mixed at appropriate concentrations to a final volume of 30 μl in each well of a 96 well plate, and the mixtures were incubated at 20-22° C. for 30 mins before the addition of culture and oxacillin to a final volume of 150 μl. Plates were incubated and scored as above. FIC indices were calculated for wells without growth and containing the lowest combination of PHMB and peptide as follows: (A/MICA)+(B/MICB)=FICA+FICB=FIC index, where A is concentration of PHMB in combination, MICA is MIC of PHMB alone, B is concentration of peptide in combination, MICB is MIC of peptide alone. A control plate without oxacillin, and control wells of culture with increasing oxcaillin but without PHMB and peptide were included."}, "[5]": {"test_system": "EMRSA-15", "test": "Oxacillin sensitization: growth of EMRSA-15 with peptide, oxacillin and fixed PHMB", "type": "cell-based, methicillin-resistant Staphylococcus aureus (MRSA)", "description": "as §1"}, "[6]": {"molecular_target": "T1, MecA (Penicillin binding protein 2A, PBP2A) (Staphylococcus aureus, UniProt P07944)", "T1 construct": "The primers were designed so that the first 23 amino acids at the N terminus were deleted; GST (N, cleaved yes); primer-encoded linker LEVLFQGP-M (my own translation of the forward primer); made in house; host or cells: Escherichia coli BL21(DE3)", "T1 sequence (P07944 24-670)": "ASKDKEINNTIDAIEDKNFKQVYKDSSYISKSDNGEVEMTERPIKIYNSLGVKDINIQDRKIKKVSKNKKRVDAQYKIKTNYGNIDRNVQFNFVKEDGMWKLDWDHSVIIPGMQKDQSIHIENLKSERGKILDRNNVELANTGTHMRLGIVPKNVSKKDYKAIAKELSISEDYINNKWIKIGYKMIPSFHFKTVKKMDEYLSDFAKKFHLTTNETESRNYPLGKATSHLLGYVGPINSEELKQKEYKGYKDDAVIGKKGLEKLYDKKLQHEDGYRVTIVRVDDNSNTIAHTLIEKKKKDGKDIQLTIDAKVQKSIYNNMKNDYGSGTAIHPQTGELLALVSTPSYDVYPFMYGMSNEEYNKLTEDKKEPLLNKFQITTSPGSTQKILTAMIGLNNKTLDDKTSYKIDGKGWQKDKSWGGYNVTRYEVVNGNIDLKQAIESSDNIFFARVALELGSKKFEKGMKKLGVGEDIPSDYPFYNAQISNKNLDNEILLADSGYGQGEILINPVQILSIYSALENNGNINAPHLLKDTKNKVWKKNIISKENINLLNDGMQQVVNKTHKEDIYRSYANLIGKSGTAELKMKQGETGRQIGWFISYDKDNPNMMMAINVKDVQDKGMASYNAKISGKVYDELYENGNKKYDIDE", "test": "In vitro binding to MecA and block of oxacillin binding", "design": "species or system methicillin-resistant Staphylococcus aureus (MRSA)", "description": "For inhibitor screening recombinantly expressed and purified PBP2a is immobilised using an affinity tag to the surface of the wells of a microtiter plate. The wells are then incubated with serially diluted solutions of the peptide aptamer or indeed any possible inhibitor of PBP2a, plus a PBP2a substrate, such as BIO-AMP (Bobba et al. 2011) at a fixed concentration in PBS. After approximately 15 min, the binding reactions are stopped, and the plates were developed as described (Bobba et al. 2011). The background levels of fluorescence from control reactions are subtracted and then the inhibitor binding data are calculated and plotted to determine the Ki^app of binding."}}}
{"molecule": "Cc1onc(-c2ccccc2)c1C(=O)N[C@@H]1C(=O)N2[C@@H]1SC(C)(C)[C@@H]2C(=O)O", "note": "[Oxacillin, oxacillin, reference compound]", "values": [{"measurement": "Growth of EMRSA-15", "setting": "[1]; oxacillin 16 ug/ml", "result": 1}, {"measurement": "Growth of EMRSA-15", "setting": "[1]; oxacillin 32 ug/ml", "result": 1}, {"measurement": "Growth of EMRSA-15", "setting": "[1]; oxacillin 64 ug/ml", "result": 1}, {"measurement": "Growth of EMRSA-15", "setting": "[1]; oxacillin 128 ug/ml", "result": 1}, {"measurement": "Growth of EMRSA-15", "setting": "[1]; oxacillin 256 ug/ml", "result": 0}, {"measurement": "Growth of EMRSA-15", "setting": "[2]; E1 0 ug/ml, oxacillin 8 ug/ml", "result": 1}, {"measurement": "Growth of EMRSA-15", "setting": "[2]; E1 0 ug/ml, oxacillin 16 ug/ml", "result": 1}, {"measurement": "Growth of EMRSA-15", "setting": "[2]; E1 0 ug/ml, oxacillin 32 ug/ml", "result": 1}, {"measurement": "Growth of EMRSA-15", "setting": "[2]; E1 0 ug/ml, oxacillin 64 ug/ml", "result": 1}, {"measurement": "Growth of EMRSA-15", "setting": "[2]; E1 0 ug/ml, oxacillin 128 ug/ml", "result": 0}, {"measurement": "Growth of EMRSA-15", "setting": "[2]; HIW 0 ug/ml, oxacillin 16 ug/ml", "result": 1}, {"measurement": "Growth of EMRSA-15", "setting": "[2]; HIW 0 ug/ml, oxacillin 32 ug/ml", "result": 1}, {"measurement": "Growth of EMRSA-15", "setting": "[2]; HIW 0 ug/ml, oxacillin 64 ug/ml", "result": 0}, {"measurement": "MIC", "setting": "[3]; MHB + 0.25 μg/ml PHMB", "result": 256, "unit": "µg/mL"}, {"measurement": "MIC", "setting": "[3]; MHB + 176 μg/ml MecA3136", "result": 128, "unit": "µg/mL"}, {"measurement": "MIC", "setting": "[3]; MHB + 176 μg/ml MecA3140", "result": 128, "unit": "µg/mL"}, {"measurement": "MIC", "setting": "[3]; MHB", "result": 128, "unit": "µg/mL"}, {"measurement": "MIC", "setting": "[4]; oxacillin alone, checkerboard set of experiments", "result": 256, "unit": "µg/mL"}, {"measurement": "MIC", "setting": "[4]; with PHMB and MecA3136 at certain concentrations", "result": 516, "unit": "µg/mL"}]}
{"molecule": "B1", "values": [{"measurement": "effect during the assay", "setting": "[5]; oxacillin and 1 ug/ml PHMB", "result": "Sequence E1 is a different scaffold to MecA3136 and MecA3140, but in Table 11 shows a modest effect during the assay."}, {"measurement": "enhancement of oxacillin activity", "setting": "[5]; with PHMB", "result": "Clear enhancement of oxacillin activity"}, {"measurement": "Growth of EMRSA-15", "setting": "[2]; E1 5 ug/ml, oxacillin 0 ug/ml", "result": 1}, {"measurement": "Growth of EMRSA-15", "setting": "[2]; E1 5 ug/ml, oxacillin 8 ug/ml", "result": 1}, {"measurement": "Growth of EMRSA-15", "setting": "[2]; E1 5 ug/ml, oxacillin 16 ug/ml", "result": 1}, {"measurement": "Growth of EMRSA-15", "setting": "[2]; E1 5 ug/ml, oxacillin 32 ug/ml", "result": 1}, {"measurement": "Growth of EMRSA-15", "setting": "[2]; E1 5 ug/ml, oxacillin 64 ug/ml", "result": 0}, {"measurement": "Growth of EMRSA-15", "setting": "[2]; E1 5 ug/ml, oxacillin 128 ug/ml", "result": 0}, {"measurement": "Growth of EMRSA-15", "setting": "[2]; E1 10 ug/ml, oxacillin 0 ug/ml", "result": 1}, {"measurement": "Growth of EMRSA-15", "setting": "[2]; E1 10 ug/ml, oxacillin 8 ug/ml", "result": 1}, {"measurement": "Growth of EMRSA-15", "setting": "[2]; E1 10 ug/ml, oxacillin 16 ug/ml", "result": 1}, {"measurement": "Growth of EMRSA-15", "setting": "[2]; E1 10 ug/ml, oxacillin 32 ug/ml", "result": 1}, {"measurement": "Growth of EMRSA-15", "setting": "[2]; E1 10 ug/ml, oxacillin 64 ug/ml", "result": 0}, {"measurement": "Growth of EMRSA-15", "setting": "[2]; E1 10 ug/ml, oxacillin 128 ug/ml", "result": 0}, {"measurement": "Growth of EMRSA-15", "setting": "[2]; E1 20 ug/ml, oxacillin 0 ug/ml", "result": 1}, {"measurement": "Growth of EMRSA-15", "setting": "[2]; E1 20 ug/ml, oxacillin 8 ug/ml", "result": 1}, {"measurement": "Growth of EMRSA-15", "setting": "[2]; E1 20 ug/ml, oxacillin 16 ug/ml", "result": 1}, {"measurement": "Growth of EMRSA-15", "setting": "[2]; E1 20 ug/ml, oxacillin 32 ug/ml", "result": 0}, {"measurement": "Growth of EMRSA-15", "setting": "[2]; E1 20 ug/ml, oxacillin 64 ug/ml", "result": 0}, {"measurement": "Growth of EMRSA-15", "setting": "[2]; E1 20 ug/ml, oxacillin 128 ug/ml", "result": 0}, {"measurement": "binding to MecA and block of oxacillin binding", "setting": "[6]", "result": "bind to MecA and block oxycillin binding to MecA"}]}
